Laboratory results reported in article PMC3792076, “Elucidation of Substrate Specificity in Aspergillus nidulans UDP-Galactose-4-Epimerase” (PLoS ONE, 2013).

Substrate: O=c1ccn([C@@H]2O[C@H](COP(=O)(O)OP(=O)(O)O[C@H]3O[C@H](CO)[C@H](O)[C@H](O)[C@H]3O)[C@@H](O)[C@H]2O)c(=O)[nH]1
Assay: purified protein
Type: biochemical, Aspergillus nidulans
Conditions: 2 mM NAD+, 100 mM Tris-HCl pH 8.5, 25°C

Protein | Km | kcat | kcat/Km
AnGALE (Aspergillus nidulans FGSC A4) (protein, N-terminal His-TEV tag (p-HIS-TEV-GALE), not cleaved for crystallization; E. coli BL21-Gold; homodimer) MPSGSVLVTGGTGYIGSFTTLALLEAGYKVVVADNLYNSSAEALNRIELISGKKAEFAQLDVTDEAAFDKVFEAHPDIDSVIHFAALKAVGESGEKPLDYYHVNVYGTICLLRSMVRHNVTNIVFSSSATVYGDATRFPDMIPIPEHCPLGPTNPYGNTKFAIELAITDVINAQRNNAKKAGNETEAAKWNGALLRYFNPAGAHPSGIMGEDPQGVPYNLLPLLAQVATGKREKLLVFGDDYASHDGTAIRDYIHILDLADGHLKALNYLRANNPGVRAWNLGTGRGSTVYEMIRAFSKAVGRDLPYEVAPRRAGDVLNLTSNPTRANTELGWKAQRTLEQACEDLWLWTKNNPQGYRQQPPAELLEQLKK | 110 ± 10 µM | 12.8 ± 0.6 s⁻¹ | 116000 ± 8100 M⁻¹ s⁻¹
AnGALE (Aspergillus nidulans FGSC A4; L320Y) (protein, N-terminal His-TEV tag (p-HIS-TEV-GALE), not cleaved for crystallization; E. coli BL21-Gold; homodimer) MPSGSVLVTGGTGYIGSFTTLALLEAGYKVVVADNLYNSSAEALNRIELISGKKAEFAQLDVTDEAAFDKVFEAHPDIDSVIHFAALKAVGESGEKPLDYYHVNVYGTICLLRSMVRHNVTNIVFSSSATVYGDATRFPDMIPIPEHCPLGPTNPYGNTKFAIELAITDVINAQRNNAKKAGNETEAAKWNGALLRYFNPAGAHPSGIMGEDPQGVPYNLLPLLAQVATGKREKLLVFGDDYASHDGTAIRDYIHILDLADGHLKALNYLRANNPGVRAWNLGTGRGSTVYEMIRAFSKAVGRDLPYEVAPRRAGDVLNYTSNPTRANTELGWKAQRTLEQACEDLWLWTKNNPQGYRQQPPAELLEQLKK | 60 ± 10 µM | 1.5 ± 0.1 s⁻¹ | 26800 ± 1900 M⁻¹ s⁻¹
